{
  "source": "paper PMC3729259",
  "about": "(The Prostate, 2010)",
  "binders": {"B1": {"name": "VP16-AR fusion protein (receptor, UniProt P10275 1-920, looked up)", "chain": "MEVQLGLGRVYPRPPSKTYRGAFQNLFQSVREVIQNPGPRHPEAASAAPPGASLLLLQQQQQQQQQQQQQQQQQQQQQQQETSPRQQQQQQGEDGSPQAHRRGPTGYLVLDEEQQPSQPQSALECHPERGCVPEPGAAVAASKGLPQQLPAPPDEDDSAAPSTLSLLGPTFPGLSSCSADLKDILSEASTMQLLQQQQQEAVSEGSSSGRAREASGAPTSSKDNYLGGTSTISDNAKELCKAVSVSMGLGVEALEHLSPGEQLRGDCMYAPLLGVPPAVRPTPCAPLAECKGSLLDDSAGKSTEDTAEYSPFKGGYTKGLEGESLGCSGSAAAGSSGTLELPSTLSLYKSGALDEAAAYQSRDYYNFPLALAGPPPPPPPPHPHARIKLENPLDYGSAWAAAAAQCRYGDLASLHGAGAAGPGSGSPSAAASSSWHTLFTAEEGQLYGPCGGGGGGGGGGGGGGGGGGGGGGGEAGAVAPYGYTRPPQGLAGQESDFTAPDVWYPGGMVSRVPYPSPTCVKSEMGPWMDSYSGPYGDMRLETARDHVLPIDYYFPPQKTCLICGDEASGCHYGALTCGSCKVFFKRAAEGKQKYLCASRNDCTIDKFRRKNCPSCRLRKCYEAGMTLGARKLKKLGNLKLQEEGEASSTTSPTEETTQKLTVSHIEGYECQPIFLNVLEAIEPGVVCAGHDNNQPDSFAALLSSLNELGERQLVHVVKWAKALPGFRNLHVDDQMAVIQYSWMGLMVFAMGWRSFTNVNSRMLYFAPDLVFNEYRMHKSRMYSQCVRMRHLSQEFGWLQITPQEFLCMKALLLFSIIPVDGLKNQKFFDELRMNYIKELDRIIACKRKNPTSCSRRFYQLTKLLDSVQPIARELHQFTFDLLIKSHMVSVDFPEMMAEIISVQVPKILSGKVKPIYFHTQ"}},
  "target": "Gal4-PAX6 fusion protein (human, UniProt P26367 1-422)",
  "sequence (P26367 whole entry, the tested form may be a part)": "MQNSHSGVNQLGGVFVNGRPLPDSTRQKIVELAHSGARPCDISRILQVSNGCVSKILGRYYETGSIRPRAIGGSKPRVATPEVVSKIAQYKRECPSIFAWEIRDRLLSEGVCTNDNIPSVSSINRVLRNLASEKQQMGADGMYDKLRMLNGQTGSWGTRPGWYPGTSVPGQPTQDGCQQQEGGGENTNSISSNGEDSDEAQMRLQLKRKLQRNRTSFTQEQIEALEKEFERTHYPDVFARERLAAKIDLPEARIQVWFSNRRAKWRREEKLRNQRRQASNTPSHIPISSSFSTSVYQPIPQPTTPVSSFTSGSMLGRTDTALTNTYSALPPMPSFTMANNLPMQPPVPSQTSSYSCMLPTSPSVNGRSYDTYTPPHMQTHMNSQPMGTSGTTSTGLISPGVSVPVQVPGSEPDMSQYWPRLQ",
  "assay": "two-hybrid",
  "data": [
    {"binder": "B1", "values": [
      {"measurement": "fold luciferase activity (against cells with pGal4 and pVP16)", "value": 4, "unit": "fold"}
    ]}
  ]
}
